According to patent US20260167699A1 (Chugai, published 2026):
Changes are numbered by the printed parent chain.

T1: FcγRIIa(R) extracellular domain, C-terminal His tag (human, UniProt P12318 34-217)
T1 construct: extracellular domain; Allotype R131; also called 2aR
T1 sequence: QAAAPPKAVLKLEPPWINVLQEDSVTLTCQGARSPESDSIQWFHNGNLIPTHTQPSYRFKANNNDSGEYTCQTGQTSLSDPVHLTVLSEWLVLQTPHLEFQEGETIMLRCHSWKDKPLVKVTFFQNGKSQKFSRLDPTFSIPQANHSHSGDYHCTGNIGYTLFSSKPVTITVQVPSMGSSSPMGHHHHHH

T2: FcγRIIa(H) extracellular domain, C-terminal His tag (human, UniProt P12318 34-217)
T2 construct: extracellular domain; Allotype H131; also called 2aH
T2 sequence: T1 sequence with R134H

T3: FcγRIIb extracellular domain, C-terminal His tag (human, UniProt P31994 43-217)
T3 construct: extracellular domain; also called 2b
T3 sequence: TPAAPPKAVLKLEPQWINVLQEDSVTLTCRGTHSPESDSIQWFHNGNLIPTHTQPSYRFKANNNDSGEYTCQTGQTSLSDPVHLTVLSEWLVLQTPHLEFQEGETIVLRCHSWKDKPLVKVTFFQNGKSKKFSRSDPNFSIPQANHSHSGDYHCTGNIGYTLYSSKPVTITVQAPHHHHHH

B1: GpH7-A5/GpH7-B3 variant K326_08L/GpL16-k0 (antibody, human IgG1, kappa)
heavy 1: not shown
heavy 2: not shown
light: DIVMTQSPLSLPVTPGEPASISCQASESLVHSNRNTYLHWYLQKPGQSPQLLIYKVSNRFSGVPDRFSGSGSGTDFTLKISRVEAEDVGVYYCSQNTHVPPTFGQGTKVEIERTVAAPSVFIFPPSDEQLKSGTASVVCLLNNFYPREAKVQWKVDNALQSGNSQESVTEQDSKDSTYSLSSTLTLSKADYEKHKVYACEVTHQGLSSPVTKSFNRGEC
notes: He Ab: anti-glypican 3 IgG1 heterodimer, only the GpH7-B3 chain mutated; position in EU numbering; also called He Ab
B2: GpH7-A5/GpH7-B3 variant K326_15Y/GpL16-k0 (antibody, human IgG1, kappa)
heavy 1: not shown
heavy 2: not shown
light: B1 light
notes: as for B1
B3: GpH7-A5/GpH7-B3 variant K326_12R/GpL16-k0 (antibody, human IgG1, kappa)
heavy 1: not shown
heavy 2: not shown
light: B1 light
notes: as for B1
B4: GpH7-A5/GpH7-B3 variant K326_19Q/GpL16-k0 (antibody, human IgG1, kappa)
heavy 1: not shown
heavy 2: not shown
light: B1 light
notes: as for B1
B5: GpH7-A5/GpH7-B3 variant L328_02A/GpL16-k0 (antibody, human IgG1, kappa)
heavy 1: not shown
heavy 2: not shown
light: B1 light
notes: as for B1
B6: GpH7-A5/GpH7-B3 variant N325_16H/GpL16-k0 (antibody, human IgG1, kappa)
heavy 1: not shown
heavy 2: not shown
light: B1 light
notes: as for B1
B7: GpH7-A5/GpH7-B3 variant K326_13S/GpL16-k0 (antibody, human IgG1, kappa)
heavy 1: not shown
heavy 2: not shown
light: B1 light
notes: as for B1
B8: GpH7-A5/GpH7-B3 variant K326_14T/GpL16-k0 (antibody, human IgG1, kappa)
heavy 1: not shown
heavy 2: not shown
light: B1 light
notes: as for B1
B9: GpH7-A5/GpH7-B3 variant L328_07I/GpL16-k0 (antibody, human IgG1, kappa)
heavy 1: not shown
heavy 2: not shown
light: B1 light
notes: as for B1
B10: GpH7-A5/GpH7-B3 variant K326_18N/GpL16-k0 (antibody, human IgG1, kappa)
heavy 1: not shown
heavy 2: not shown
light: B1 light
notes: as for B1
B11: GpH7-A5/GpH7-B3 variant L328_15Y/GpL16-k0 (antibody, human IgG1, kappa)
heavy 1: not shown
heavy 2: not shown
light: B1 light
notes: as for B1
B12: GpH7-A5/GpH7-B3 variant N325_09D/GpL16-k0 (antibody, human IgG1, kappa)
heavy 1: not shown
heavy 2: not shown
light: B1 light
notes: as for B1
B13: GpH7-A5/GpH7-B3 variant L328_18N/GpL16-k0 (antibody, human IgG1, kappa)
heavy 1: not shown
heavy 2: not shown
light: B1 light
notes: as for B1
B14: GpH7-A5/GpH7-B3 variant L328_13S/GpL16-k0 (antibody, human IgG1, kappa)
heavy 1: not shown
heavy 2: not shown
light: B1 light
notes: as for B1
B15: GpH7-A5/GpH7-B3 variant L328_06M/GpL16-k0 (antibody, human IgG1, kappa)
heavy 1: not shown
heavy 2: not shown
light: B1 light
notes: as for B1
B16: GpH7-A5/GpH7-B3 variant K326_16H/GpL16-k0 (antibody, human IgG1, kappa)
heavy 1: not shown
heavy 2: not shown
light: B1 light
notes: as for B1
B17: GpH7-A5/GpH7-B3 variant L328_03V/GpL16-k0 (antibody, human IgG1, kappa)
heavy 1: not shown
heavy 2: not shown
light: B1 light
notes: as for B1
B18: GpH7-A5/GpH7-B3 variant L328_16H/GpL16-k0 (antibody, human IgG1, kappa)
heavy 1: not shown
heavy 2: not shown
light: B1 light
notes: as for B1
B19: GpH7-A5/GpH7-B3 variant L328_14T/GpL16-k0 (antibody, human IgG1, kappa)
heavy 1: not shown
heavy 2: not shown
light: B1 light
notes: as for B1
B20: GpH7-A5/GpH7-B3 variant K326_10E/GpL16-k0 (antibody, human IgG1, kappa)
heavy 1: not shown
heavy 2: not shown
light: B1 light
notes: as for B1
B21: GpH7-A5/GpH7-B3 variant N325_13S/GpL16-k0 (antibody, human IgG1, kappa)
heavy 1: not shown
heavy 2: not shown
light: B1 light
notes: as for B1
B22: GpH7-A5/GpH7-B3 variant L328_19Q/GpL16-k0 (antibody, human IgG1, kappa)
heavy 1: not shown
heavy 2: not shown
light: B1 light
notes: as for B1
B23: GpH7-A5/GpH7-B3 variant L328_04F/GpL16-k0 (antibody, human IgG1, kappa)
heavy 1: not shown
heavy 2: not shown
light: B1 light
notes: as for B1
B24: GpH7-A5/GpH7-B3 variant K326_09D/GpL16-k0 (antibody, human IgG1, kappa)
heavy 1: not shown
heavy 2: not shown
light: B1 light
notes: as for B1

Biological target: T4, FcγRIa extracellular domain, C-terminal His tag (human, UniProt P12314 16-292)
T4 construct: extracellular domain; also called 1a
Test: SPR (Biacore); binding relative to GpH7-A5/GpH7-B3/GpL16-k0 x100;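 also: antibodies captured on a chip surface, soluble FcγR flowed over in HBS-EP+ running buffer at 25 °C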
Experimental: (§1) The antibody of interest was analyzed for its interaction with FcγR using a BiaCore™ T100, BiaCore™ A100, or BiaCore™ 4000 surface plasmon resonance system (GE Healthcare Japan Corp.). The running buffer used was HBS-EP+ (GE Healthcare Japan Corp.). The assay temperature was set to 25° C. The sensor chips used were: a chip prepared by immobilizing antigenic peptides onto Series S Sensor Chip CM5 (GE Healthcare Japan Corp.) by the amine coupling method; a chip prepared by immobilizing antigenic peptides biotinylated in advance onto Series S Sensor Chip SA (certified) (GE Healthcare Japan Corp.) through their interaction; a chip prepared by immobilizing protein L (ACTIGEN, BioVision, Inc.) onto Series S Sensor Chip CM5 (GE Healthcare Japan Corp.); and a chip prepared by immobilizing protein A/G (Thermo Fisher Scientific K.K.) onto Series S Sensor Chip CM5 (GE Healthcare Japan Corp.). The antibody of interest was captured onto any of these chips and allowed to interact with FcγR diluted with a running buffer. The antibody captured on the chip was washed off through the reaction of 10 mM glycine-HCl (pH 1.5) to regenerate the chip, which was repetitively used.

T4 sequence (P12314 other isoform, or with tags, fused parts or gaps): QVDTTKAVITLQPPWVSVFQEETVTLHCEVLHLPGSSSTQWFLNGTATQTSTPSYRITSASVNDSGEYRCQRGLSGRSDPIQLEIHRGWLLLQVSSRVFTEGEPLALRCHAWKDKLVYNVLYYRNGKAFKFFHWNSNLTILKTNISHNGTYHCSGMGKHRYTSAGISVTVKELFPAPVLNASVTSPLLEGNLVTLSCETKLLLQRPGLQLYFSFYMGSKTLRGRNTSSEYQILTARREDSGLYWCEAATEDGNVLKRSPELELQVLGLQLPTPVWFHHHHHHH

Row | Binder | He/Con 1a [%]
1 | B1 | 105
2 | B2 | 111
3 | B3 | 105
4 | B4 | 108
5 | B5 | 101
6 | B6 | 99.9
7 | B7 | 106
8 | B8 | 109
9 | B9 | 102
10 | B10 | 110
11 | B11 | 104
12 | B12 | 105
13 | B13 | 101
14 | B14 | 101
15 | B15 | 101
16 | B16 | 109
17 | B17 | 103
18 | B18 | 98.5
19 | B19 | 103
20 | B20 | 109
21 | B21 | 102
22 | B22 | 104
23 | B23 | 100
24 | B24 | 109

Biological target: T1, FcγRIIa(R) extracellular domain, …
Test: as above
Experimental: as §1

Row | Binder | He/Con 2aR [%]
25 | B1 | 131
26 | B2 | 131
27 | B3 | 98.6
28 | B4 | 124
29 | B5 | 150
30 | B6 | 85.3
31 | B7 | 119
32 | B8 | 128
33 | B9 | 160
34 | B10 | 110
35 | B11 | 174
36 | B12 | 111
37 | B13 | 76.4
38 | B14 | 150
39 | B15 | 148
40 | B16 | 115
41 | B17 | 150
42 | B18 | 106
43 | B19 | 153
44 | B20 | 142
45 | B21 | 137
46 | B22 | 115
47 | B23 | 177
48 | B24 | 142

Biological target: T2, FcγRIIa(H) extracellular domain, …
Test: as above
Experimental: as §1

Row | Binder | He/Con 2aH [%]
49 | B1 | 96.5
50 | B2 | 102
51 | B3 | 105
52 | B4 | 106
53 | B5 | 154
54 | B6 | 50
55 | B7 | 110
56 | B8 | 119
57 | B9 | 111
58 | B10 | 113
59 | B11 | 106
60 | B12 | 55.3
61 | B13 | 80.6
62 | B14 | 146
63 | B15 | 122
64 | B16 | 102
65 | B17 | 116
66 | B18 | 84.5
67 | B19 | 138
68 | B20 | 106
69 | B21 | 83
70 | B22 | 103
71 | B23 | 84.9
72 | B24 | 115

Biological target: T3, FcγRIIb extracellular domain, …
Test: as above
Experimental: as §1

Row | Binder | He/Con 2b [%]
73 | B1 | 198
74 | B2 | 179
75 | B3 | 100
76 | B4 | 156
77 | B5 | 180
78 | B6 | 78.5
79 | B7 | 139
80 | B8 | 168
81 | B9 | 200
82 | B10 | 118
83 | B11 | 240
84 | B12 | 139
85 | B13 | 101
86 | B14 | 186
87 | B15 | 176
88 | B16 | 133
89 | B17 | 157
90 | B18 | 100
91 | B19 | 176
92 | B20 | 224
93 | B21 | 198
94 | B22 | 131
95 | B23 | 273
96 | B24 | 216

Biological target: T5, FcγRIIIa extracellular domain, C-terminal His tag (human, UniProt P08637 17-208)
T5 construct: extracellular domain; also called 3a
Test: as above
Experimental: as §1

T5 sequence (P08637 other isoform, or with tags, fused parts or gaps): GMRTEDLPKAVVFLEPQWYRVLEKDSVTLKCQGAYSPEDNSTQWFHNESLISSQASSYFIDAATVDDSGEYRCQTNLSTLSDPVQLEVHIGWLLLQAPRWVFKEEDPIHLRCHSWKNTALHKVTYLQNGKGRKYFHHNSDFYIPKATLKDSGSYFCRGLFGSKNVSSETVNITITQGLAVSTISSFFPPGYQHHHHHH

Row | Binder | He/Con 3a [%]
97 | B1 | 126
98 | B2 | 124
99 | B3 | 101
100 | B4 | 117
101 | B5 | 81.3
102 | B6 | 68
103 | B7 | 118
104 | B8 | 140
105 | B9 | 86.4
106 | B10 | 134
107 | B11 | 70.2
108 | B12 | 53
109 | B13 | 51.1
110 | B14 | 73.7
111 | B15 | 80.8
112 | B16 | 106
113 | B17 | 80.9
114 | B18 | 55.9
115 | B19 | 77.4
116 | B20 | 138
117 | B21 | 71.9
118 | B22 | 83.4
119 | B23 | 81.5
120 | B24 | 148
